Data: the nanobody polyreactivity screen of Harvey et al. (2022)

Experiment: yeast display, Sf9 membrane polyspecificity reagent, FACS + sequencing; frameworks hold sequencing errors
Procedure, shortened: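 Genes from sorted yeast were amplified by colony PCR, read by MiSeq 2 × 250 sequencing and filtered on CDR length. These cells carried a synthetic nanobody library in Saccharomyces cerevisiae BJ5465 and were sorted by FACS into low and high (top ~1%) gates on anti-HA and streptavidin fluorescence. Polyreactivity is labelled according to the gate of origin.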

Sequence	polyreactivity (PSR sort gate)
QVQLVESGGGLVQAGGSLRLSCAASGIIFKNYAMGWYRQAPGKERELVAAISWRGGRTYYADSVKGRFTISRDNAKNTVYLQMNSLIPEDTAVYYCAKELYVSYRGGPWVDYWGQGTQVTVSS	high polyreactivity
QVQLVESGGGLDQAGGSLRLTCAASGSIFVYNAMGWYRQAPGKEREFVAAITWRGGRTYYADSVKGRFTISRDNAKNTVYLQMNSLKPEDTAVYYCAADGGSTLDYYWGQGTQVTVSS	low polyreactivity
QVQLQESGGGLVQAGGCLSCTASGTIFGQGDMGWYRPAPGKERELVATINDGASTYYADSVKGRFTISRDKAKNTVYLQKNSLNQDDTAVYYCAVFTDITTYFGYWGQGTQVTVSS	low polyreactivity
QVQLVESGGGLVQAGGSLRLSCAASGSIFGFYAMGWYRQAPGKERELVAAITYSGGSTYADSVKGRFTISRDNAKNTVYLQMNSLKPEDTAVYYCAKDAELDITDAFYYWGQGTQVTVSS	low polyreactivity
QVQLVESGGGLVQAGGSLRLSCAASGYTFYFYAMGWSRQAPGKEREFVAAIRSSGGRTYYADSVKGRFTISRDNAKNNVYLQMNSLKPEDTAVYYCAAAGYYYSVDGAGPRYDYWGQGTQVTVSS	low polyreactivity
QVQLVESGGGIVQAGGSLRVSCAASGRIFRRHNMGWYRQAPGKERELVAAITSSGGSTYADSVKGRFTISRDNAQNTVYLQMNSLKPEDTAVYYCATYVAYHRGYRTYDHWGQGTQVTVSS	low polyreactivity
QVQLVESGGGLVQAGGSLRLSCAASGRILAGYAMGWYRQAPGKERELVAAITRGGTTYYADSVKGRFTISRDNAKYTVYLQMNSLKPEDTAVVYTVSSAQYDYWGQGTQVTVSS	low polyreactivity
QVQHVESGGGLVQAGGSLRLSCAASGFTFATYAMGWYRQAQGKERELVAAISRGTSTYYADSVKGRFTISRVNAKNTVYLQMNSLIPDDTAVYYCAATSSFRYDYWGKGTQVTVSS	low polyreactivity
QVQLVESGGGIVQAGGSLRLSCAASGYTFAKYAMGWYRQEPGKERELVAAISSSGGRTYYADSVKGRFTISRDIAKNTVYLQMNSLKPEDTAVYYCNAYGQRDYWGQGSQVTVSS	high polyreactivity
QVQLVESGGGLVQAGGSLRLSCAASGFTLGYNVMGWYRQAPGKERELVATICWNGARTYYADSVKGRFTISRDTAKNTVYLQMNSLKPEDTAVYYCAARRYYRGEYDYWGQGTQVTVSS	low polyreactivity
QVQLVESGGGLVQAGGSLRLSCAASGFTFGRYAMGWYRQAPGKEREFVAAITWSGGGTYYADSVKGRFTISRDNAKYTVYLQMYSLKPEDTAVYYCAADRRAYGGGYWGQGTQVTVSS	high polyreactivity
QVQLVESGGGLVQAGGSLRLSCAASGRTFIVNAMGWYRQAPGKERELVAAITKGARTYYADSVKGRFTISRDNAKNTVYLQMNSLKPEDSAVYYCAAVSYTQSHAYWGTGYRYGYWGQGTQVTVSS	high polyreactivity
QVQLVESGGGLVQAGGSLRLSCAASGRIFAYNAMGWYRPAPGKERELVADISSGGNTYYADSVKGRFTISRDNAKNTVYLQMNSLKPEDTAVYYCAADIAWYTHYHRIFDYWGQGTQVTVSS	low polyreactivity
QVQLVESGGGLVQAGGSLRLSCAASGRTFWVYAMGRYRQAPGKEREFVAAISSNGDRTYYADSVKGRFTISRDNAKNTVYLQMNSLKPEDTAVYYCNSRKQYRYLADRMDYWGQGTQVTVSS	high polyreactivity
QVQLVESGGGLVQAGGSLRLSCAASGFTFGGYAMGWYRQAPGKERELVAAIDSSGGRTYYADSVKGRFTISRDNAKNTVYLQMNSLKPEDTAVYYCNAGNSGWWRYDYDYWGQGTQVTVSS	high polyreactivity
QVQQQESAGGLVQAGGSLRLSCAASGNIFVDAYMGWYRQAPGKERELVATFAPADSVKGRFTISRDNAKNTVYLQMYSLKPEDTAVYYCAAFTGYSSVFGYWGQGIQVTVSS	high polyreactivity
QVQLVESGGGLVQAGGSLRLSCAASGFTFVRYAMGWDSQAPGTERELVAAMSRSGGSTYYADSVKGRFTISRDNAKNTVYLQMNSLKPEDTAVYYCAADIKGRTGDAYDYWGQGTQVTVSS	low polyreactivity
QVQLVESGGGLVQAGGSLRLSCAASGSTFGSNAMGWYRQAPGKERELVAAISSIGGSTYYADSVKGRFTISRDNAKNTVYLQMNSLKTEDTAVYYCAAKYYGRYYRYLGSSFDYWGQGTQVTVSS	high polyreactivity
QVQLVESGGGLVQAGGSLRLSCAASGSTFYGYVMGWYRQAPGKERELVAGITRGGSTNYADSVKGRFTISRDNAKNTVYLQMNSLKPEDTAVYYCATRYFSRYYYWGQGTQVTVSS	high polyreactivity
QVQLVESGGGLVQAGGSLRLSCAASGRIYTYYTMGWYRQAPGKERELVAAITVRGGRTYYADSVKGRFTISRDNAKNTDYLQMNSLKPEDTAVYYCAARGLVRSYDYWGQVTQVTVSS	high polyreactivity
QVQLVESGGGLVQAGGSLRLSCAASGSTLGRYAMGWYRQAPGKERELVASITWSDDSTYYADSVKGRFTISRDNAKNTVYLQMNSLKPEDTAVYYCAAAGNLYTYRFYYWGQGTQVTVSS	low polyreactivity
QVQLVESGGGLVQAGGSLRLSCADSGSIFRIYAMGWYSQAPGKERELVAAITGRGGSTYYADSVKGRFTISRDNAKNTVYLQMNSLKPEDTAVYYCAAEERYAYRYDYWGQGTQVTVSS	high polyreactivity

Sequence	polyreactivity (PSR sort gate)
QVQLVESGGGLVQAGGSLRISCAASGSIFDSKAMGWYRQAPGKERELVASFTSSGGSTYYADSVKGRFTISRDNAKNTVYLPRNSRKPEDTAVYYCAADSYKTIQDAYDYWGQGTQVTVSS	high polyreactivity
QVQLVESGGALVQAGGSLRLSCAASGRTFWRNTMGWYRQAPGKEREFVAAITFSGVRTYYADSVKGRFTISRDNAKNTVYLQMNSLKPQDTAVYYCAKSRQYIGGFDYWGQGTQVTVSS	high polyreactivity
QVQIVESGGGLVQAGGSLRLSCAASGRTFRGNVMGWSRQAPGKEREFVAAITRSGSNTYYADSVKGRFTISRDNAKNTVYLQMNSLKPEDTAVYYCAKSVLLGYKRHDSWGQGTQVTVSS	high polyreactivity
QVQLVESGGRLVQAGGSLRLICAASGLIFRAYAMGWYIQAPGKERELVAAISRNGGSTYYADSVKGRFTISRDNAKNTVYLQMNILKPEDTAGYYCNKVSRSSVYQDYYYWGQGTQVTVSS	high polyreactivity
QVQLVESGGGLVQAGGRLRLSCAASGIIFPRYMGWYRQAPGKERELVAAIRWSSDDTNYADSVKGRFTISRDNAKNTVYLQMNSLKPEDTAVYYCAAHSYYDRTIQFEFSARTYDYWGQGTQVTVSS	low polyreactivity
QVQLVESGGGLFQAGGSLRLSCAASGSTFGRYAMGWYRQAPGTEREWLAAISRRGGSTYYADSVKGRFTISRDNAKNTVYLQMNSLKPEDSAVYYCATGYPIDLGREFDYWGQGFQVTVSS	high polyreactivity
QVQLVESGGGLVQAGGSLRLSCAASGRIFNYYAMGWYRQATGKERELVARIDASGDSTYYADSVKGRFTISRDNAKNTVYLQMNSLKPEDTAVYYCNKDYLYSYLWGWKVYSYDYWGQGTQVTVSS	low polyreactivity
QVQLVESGGGLVQAGGSLRLSCAASGRIFERYAMGWYRQAPGKERELVAGISISGGGTYYADSVKGRFTISRDIAKNTVYFQMNSLKPEDTAVYYCAATFPREEYGYWGQGTQVTVSS	low polyreactivity
QDQLVESGGGLVQAGGSLRLSCAASGRIFNQYGMGWYRQAPGKERELVAAIRSGDSTNYADSVKGRFTISRDNAKNTVYLQMNSLKPEDTAVYYCARDRPGDYAGYDYWGQGTQVTVSS	low polyreactivity
QVQLVESGGGLVQAGGSLRLSCAASGSTFATNTMGWYRQAPGKERELVARITSSDGSTTYADSVKGRFTISRDNAKNTDYLQMNSLKPEDTAVYYCAAAYGRRWGYDYWGQGTQVTVSS	low polyreactivity
QVQLVESGGGLVQAGCSLRLSFAASGRTLVPYSMGWYRQAPGKERELVAAKSSGGSTNYADSVKGRFTISRDNAKNTVYLQMNSLKPEDTAVYSCAAYDSVQKYWILGFDYWGQGTQVTVSS	low polyreactivity
QVQLVESGGGLVQAGGSLRLSCAASGFIFSKYAMGWYRQAPGKERELVAAISWNGGSTYYADSVKGRFTISRDNAKNTVYLQMNSLKPEDTAVYYCNTGYGRIRRPGALDYWGQGTQVTVSS	high polyreactivity
QVQLVESGRGLVQAGGSLSLSCAASGRIFYYYVMGWYRQAPGKERELVAVIDWSGGSTYYADSVKGRFTISRVNAKNTVYLQMNSLKPEDTAVYYCAKVGLNFSLAYEDYDYWGQGTQVTVSS	low polyreactivity
QVQLVESGGGLVQAGGSLRLSCAASGRIFLVNAMGWYRQAPGKERELVAAISWSSGSTYYADSVKGSITISRDNAKNTVYLQMNSLKPEDTAVYYCAADGSSRGRYRYGYWGQGTQVTVSS	high polyreactivity
QVQLVESRGRLDQAGGSLRLSCAAYARIFAVYAMGWYRQAPGKESEFVATITYNAGSTYYADSVKGRFTISRDNAKNTVNLQMNSLKPEDTAVYYCAVELDSEPAYEPWTEYDYWGQGTQVTVSS	low polyreactivity
QVQLVESGGGLVQAGGSLRLSCAASGRIFASYAMGWYRQAPGKERELVASISKSVGRTYYSDSVKGRFTISRDNAKNTVYLQMNSLKPEDTAVYDCAAISYFPLRTRYERWFYYWGQGTQVTVSS	high polyreactivity
QVQLVESGGGLVQAGGSLRLSCAASGSIFIQYAMGWYRQAPGKERELVAAINSSGGRTYYADSVKGRFTISRDNAKNTVYLQMNSLKPEDTAVYYCAADHGSSFDWGQGTQVTVSS	low polyreactivity
QVQLVESGGGLVQAGGSLRLSCAASGRIFRYYAMGWYRQAPVKDRELVARINIGGSTYYADSVKGRFTISRDNAKNTVYLKMNSLLREDTAVYYCAAVPRPVSRTIWGDYWGEGTQVTVSS	high polyreactivity
QVQLVESGGGLVQAGGSLRLSCAASGRIFVTNDMGWYRQAPGKERELVAAISLSSGSTYYADSVKGRFTISRDNAKNTVYLQMNSLKPEDTAVYYCAADIFPFGYFLFRHGYWGQGTQVTVSS	low polyreactivity
QVQLVESGGGLVQAGGSLRLSCAASGRIFGVYAMGWYRQAPGKERELVAAISFSGGRTYYADSVKGRFTISRDNAKNTVYLQMNSLKPEDTAVYYCSALGPYDWLWAGDYWGQGTQVTVSS	low polyreactivity
QVQLVESGGGLVQAGGSLRLSCAASGSTLGDNGMGWYIQAPGKERELVAAITIGGSTTYADSVKGRFTISRDNAKNTVYLQMNSLKPEDTAVYYCAADQQARDQYSDWTEYDYWGQGTQVNVSS	low polyreactivity
